The values below come from patent US20130323786A1 (Biogen, published 2013).

Sequences and labels used below:
T1: human Fc receptor CD32a-GST fusion protein (human, UniProt P12318 34-217)
T1 construct: not shown: GST
T1 sequence (looked up): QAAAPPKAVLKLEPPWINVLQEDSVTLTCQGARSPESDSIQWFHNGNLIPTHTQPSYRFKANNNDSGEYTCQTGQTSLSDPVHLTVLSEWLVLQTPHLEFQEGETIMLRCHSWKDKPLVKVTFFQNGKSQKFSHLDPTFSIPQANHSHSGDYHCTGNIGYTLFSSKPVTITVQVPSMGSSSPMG

T2: human Fc receptor CD32b-GST fusion protein (human, UniProt P31994 43-217)
T2 construct: not shown: GST
T2 sequence (looked up): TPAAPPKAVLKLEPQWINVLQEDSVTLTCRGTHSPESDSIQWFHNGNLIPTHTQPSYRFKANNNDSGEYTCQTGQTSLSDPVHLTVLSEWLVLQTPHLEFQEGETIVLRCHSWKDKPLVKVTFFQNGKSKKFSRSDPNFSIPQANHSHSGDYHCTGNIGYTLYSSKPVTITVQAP

T3: LINGO-Fc (human, UniProt Q96FE5 40-538, limits assumed)
T3 construct: not shown: Fc part
T3 sequence: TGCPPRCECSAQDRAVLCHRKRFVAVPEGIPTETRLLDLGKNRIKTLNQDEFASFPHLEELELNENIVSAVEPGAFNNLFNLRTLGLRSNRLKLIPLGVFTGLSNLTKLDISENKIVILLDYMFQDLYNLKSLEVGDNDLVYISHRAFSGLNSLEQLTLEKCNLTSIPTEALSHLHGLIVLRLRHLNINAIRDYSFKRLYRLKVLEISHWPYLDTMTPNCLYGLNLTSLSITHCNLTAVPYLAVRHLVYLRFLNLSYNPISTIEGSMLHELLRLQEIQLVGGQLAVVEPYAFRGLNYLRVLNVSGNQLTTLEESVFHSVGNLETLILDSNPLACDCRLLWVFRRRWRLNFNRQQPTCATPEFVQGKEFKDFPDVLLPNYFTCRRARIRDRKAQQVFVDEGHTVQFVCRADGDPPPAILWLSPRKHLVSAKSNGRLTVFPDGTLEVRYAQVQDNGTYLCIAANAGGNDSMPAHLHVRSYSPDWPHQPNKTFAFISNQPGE

B1: Li81 (agly) (antibody, human IgG1)
heavy: not shown
VL: DIQMTQSPATLSLSPGERATLSCRASQSVSSYLAWYQQKPGQAPRLLIYDASNRATGIPARFSGSGSGTDFTLTISSLEPEDFAVYYCQQRSNWPMYTFGQGTKLEIK
notes: Aglycosylated fully human IgG1 (single T to A change in the heavy chain); also called Li81 Ig1agly; Li81 Mab; copies: 2 + 2
B2: Li33 variant W94G (SEQ ID NO:169) (antibody, V domains shown)
VH: EVQLLESGGGLVQPGGSLRLSCAASGFTFSIYPMFWVRQAPGKGLEWVSWIGPSGGITKYADSVKGRFTISRDNSKNTLYLQMNSLRAEDTATYYCAREGHNDWYFDLWGRGTLVTVSS
VL: DIQMTQSPGTLSLSPGERATLSCRASQSVSSYLAWYQQKPGQAPRLLIYDASNRATGIPARFSGSGSGTEFTLTISSLQSEDFAVYYCQQYDKGPLTFGGGTKVEIKR
notes: unchanged chain from WT Li33
B3: Li33 variant W104L (SEQ ID NO:177) (antibody, V domains shown)
VH: B2 VH with W104L
VL: B2 VL with G94W
notes: unchanged chain from WT Li33
B4: Li33 variant W104Q (SEQ ID NO:187) (antibody, V domains shown)
VH: B2 VH with W104Q
VL: B2 VL with G94W
notes: unchanged chain from WT Li33
B5: Li33 variant W104V (SEQ ID NO:155) (antibody, V domains shown)
VH: B2 VH with W104V
VL: B2 VL with G94W
notes: unchanged chain from WT Li33
B6: Li33 variant W104T (SEQ ID NO:178) (antibody, V domains shown)
VH: B2 VH with W104T
VL: B2 VL with G94W
notes: unchanged chain from WT Li33
B7: Li33 variant W94L (SEQ ID NO:167) (antibody, V domains shown)
VH: B2 VH
VL: B2 VL with G94L
notes: unchanged chain from WT Li33
B8: Li33 variant W104H (SEQ ID NO:156) (antibody, V domains shown)
VH: B2 VH with W104H
VL: B2 VL with G94W
notes: unchanged chain from WT Li33
B9: Li33 variant W94S (SEQ ID NO:172) (antibody, V domains shown)
VH: B2 VH
VL: B2 VL with G94S
notes: unchanged chain from WT Li33
B10: Li33 variant W104M (SEQ ID NO:176) (antibody, V domains shown)
VH: B2 VH with W104M
VL: B2 VL with G94W
notes: unchanged chain from WT Li33
B11: Li33 variant W104S (SEQ ID NO:157) (antibody, V domains shown)
VH: B2 VH with W104S
VL: B2 VL with G94W
notes: unchanged chain from WT Li33
B12: Li33 variant W94Q (SEQ ID NO:170) (antibody, V domains shown)
VH: B2 VH
VL: B2 VL with G94Q
notes: unchanged chain from WT Li33
B13: Li33 variant W94V (SEQ ID NO:171) (antibody, V domains shown)
VH: B2 VH
VL: B2 VL with G94V
notes: unchanged chain from WT Li33
B14: Li33 variant W94N (SEQ ID NO:168) (antibody, V domains shown)
VH: B2 VH
VL: B2 VL with G94N
notes: unchanged chain from WT Li33
B15: Li33 variant W104I (SEQ ID NO:179) (antibody, V domains shown)
VH: B2 VH with W104I
VL: B2 VL with G94W
notes: unchanged chain from WT Li33
B16: Li33 variant W104Q (SEQ ID NO:158) (antibody, V domains shown)
VH: B2 VH with W104Q
VL: B2 VL with G94W
notes: unchanged chain from WT Li33

Numbering of substitutions follows the chain as printed. Names may count otherwise.

What is called IC50 is the concentration that inhibits the measured activity by half. Read a low IC50 as higher potency.

The first test deals with T4, human Fc receptor CD16-GST fusion protein (human, UniProt P08637 17-208).
T4 construct: not shown: GST
Nature of the test: ALPHA competition vs biotinylated wild-type IgG1; relative to wt.
For the molecule B1, the “fold decrease from wt” value amounted to 50 fold.

A further test deals with T5, human Fc receptor CD64-GST fusion protein (human, UniProt P12314 16-292, limits assumed).
T5 construct: not shown: GST
The test is described as above.
As for B1, the “fold decrease from wt” value was more than 100 fold.

A further test addresses T1, human Fc receptor CD32a-GST fusion …. The description is as above.
For the molecule B1, the “fold decrease from wt” value came to 60 fold.

The target in another test is T2, human Fc receptor CD32b-GST fusion …. Described as above.
Turning to B1, the “fold decrease from wt” value came out at 15 fold.

The target of a further test is T3, LINGO-Fc. In words: direct ELISA on LINGO-Fc; half-maximal concentration relative to Li33.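 Note: direct binding ELISA on plates coated with LINGO-Fc, concentration giving half of saturating binding, expressed as a ratio to the same value for the comparator.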 For orientation: An ELISA detects its analyte on a solid surface through an enzyme-linked reagent.
Take B2: the “ELISA Ratio” value was 0.9 ratio.
As to B3, the “ELISA Ratio” value is 2.5 ratio.
On to B4, for which the “ELISA Ratio” value worked out at 1.1 ratio.
With B5, the “ELISA Ratio” value was found to be 2.8 ratio.
On the same count and under the same terms, the figure for B6 is 3.5 ratio; for B7 it is 0.6 ratio.
For B8, the “ELISA Ratio” value was 0.1 ratio.
On the same count and under the same terms, the figure for B9 is 1.3 ratio; for B10 it is 3.8 ratio; for B11 it is 2.7 ratio.
On the same count and under the same terms, the figure for B12 is 0.9 ratio; for B13 it is 1.4 ratio; for B14 it is 0.8 ratio.
Consider B15, for which the “ELISA Ratio” value was determined as 6.5 ratio.
Same read-out and setting: the figure for B16 is 2.4 ratio.

The target of a further test is T4, human Fc receptor CD16-GST fusion …. In words: ALPHA competition vs biotinylated wild-type IgG1; receptor-GST.
As to B1, the 50% inhibitory concentration (IC50) was 179 µg/mL.

A further test concerns the target T1, human Fc receptor CD32a-GST fusion …. The description is as above.
For B1, the IC50 is 365 µg/mL.

The next test has as its target T2, human Fc receptor CD32b-GST fusion …. The test is described as above.
B1 displayed a concentration for half-maximal inhibition (IC50) of 350 µg/mL.

Another test concerns the target T3, LINGO-Fc. In words: direct ELISA on LINGO-Fc; OD450 at saturation relative to Li33.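 Note: binding to plate-coated LINGO-Fc read by OD450, with the value at maximal saturation divided by the corresponding Li33 value.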
On to B2, for which the “Plateau Ratio” value is 1.03 ratio.
B3: the “Plateau Ratio” value was 0.69 ratio.
On to B4, for which the “Plateau Ratio” value was 0.67 ratio.
On to B5, for which the “Plateau Ratio” value was 0.94 ratio.
For B6, the “Plateau Ratio” value was found to be 0.33 ratio.
Turning to B7, the “Plateau Ratio” value amounted to 0.97 ratio.
As for B8, the “Plateau Ratio” value was 0.91 ratio.
On the same count and under the same terms, the figure for B9 is 0.99 ratio; for B10 it is 0.88 ratio.
Turning to B11, the “Plateau Ratio” value is 0.85 ratio.
Take B12: the “Plateau Ratio” value came to 1.05 ratio.
For the molecule B13, the “Plateau Ratio” value was found to be 0.91 ratio.
In the case of B14, the “Plateau Ratio” value is 1.05 ratio.
On to B15, for which the “Plateau Ratio” value was determined as 0.62 ratio.
For the molecule B16, the “Plateau Ratio” value came to 0.91 ratio.
